Assay results taken from patent publication US11111296B2, “Compositions and methods for treating cardiac dysfunction” (THE BROAD INSTITUTE, INC., priority 2015, dated 2021).

Test system: myosin heavy chain in cells
Assay: cachexia functional assay (levels of myosin heavy chain in treated cells)
Format: cell-based
Conditions: for cachexia-inducing activity of RAGE ligands: FIG. 8
From the text: The compounds that are thus designed or selected may further be tested in an in vitro, in vivo, or ex vivo assays to determine if they regulate RAGE. Such assays are known to one skilled in the art. In some embodiments, the assay is a cachexia functional assay as described herein and further described in PCT/US2014/068631, which is incorporated herewith in its entirety.
In studies described herein below, a refined model of the cachectic signal was obtained (FIG. 2). Functional sites on the RAGE polypeptide were determined using a combination of experiments mapping binding interface(s) of anti-RAGE antibodies with RAGE polypeptide using hydrogen-deuterium exchange (HDEX) reactions and cachexia functional assays. As described elsewhere herein, results of the cachexia functional assay indicate whether a candidate agent (e.g., a particular anti-RAGE antibody) has cachexia-inhibitory or cachexia-inducing activity, as measured, for example, by levels of myosin heavy chain in cells treated with the candidate agent relative to a control or baseline myosin heavy chain level.

CCCCCC(=Cc1ccccc1)CN(CCc1c[nH]c2ccccc12)C(=O)c1ccc(Cl)c([N+](=O)[O-])c1 [FPS3, reference compound]
cachexia-inhibitory activity (levels of myosin heavy chain) (cells treated with various concentrations of FPS3 (FIG. 7B)): had cachexia-inhibitory activity

B1: S100P: RAGE ligand, non-cachexia-inducing (protein)
chain: MTELETAMGMIIDVFSRYSGSEGSTQTLTKGELKVLMEKELPGFLQSGKDKDAVDKLLKDLDANGDAQVDFSEFIVFVAAITSACHKYFEKAGLK
cachexia-inducing activity of RAGE ligands: non-cachexia-inducing

B2: S100A7: RAGE ligand, cachexia-inducing; sequence NP_002954.2 (protein)
chain: MSNTQAERSIIGMIDMFHKYTRRDDKIEKPSLLTMMKENFPNFLSACDKKGTNYLADVFEKKDKNEDKKIDFSEFLSLLGDIATDYHKQSHGAAPCSGGSQ
cachexia-inducing activity of RAGE ligands: cachexia-inducing

B3: S100A8/9: RAGE ligand, cachexia-inducing (protein)
chain 1: MLTELEKALNSIIDVYHKYSLIKGNFHAVYRDDLKKLLETECPQYIRKKGADVWFKELDINTDGAVNFQEFLILVIKMGVAAHKKSHEESHKE
chain 2: MTCKMSQLERNIETIINTFHQYSVKLGHPDTLNQGEFKELVRKDLQNFLKKENKNEKVIEHIMEDLDTNADKQLSFEEFIMLMARLTWASHEKMHEGDEGPGHHHKPGLGEGTP
cachexia-inducing activity of RAGE ligands: cachexia-inducing

B4: S100B: RAGE ligand, non-cachexia-inducing (protein)
chain: SELEKAMVALIDVFHQYSGREGDKHKLKKSELKELINNELSHFLEEIKEQEVVDKVMETLDNDGDGECDFQEFMAFVAMVTTACHEFFEHE
cachexia-inducing activity of RAGE ligands: non-cachexia-inducing
